Experimental data as given in patent publication US20220267415A1 (University of Texas, published 2022).
“And” between values parts separate entries of the source, which are not always exact repeats. Equal entries are not always repeated. Where two headings read alike, the source gives them in different places.

Legend:
[1] = target: T1, recombinant SARS-CoV-2 Receptor Binding Domain (RBD) with a his tag (ATUM, Cat. 65639.1.a) (SARS-CoV-2, UniProt P0DTC2 319-541)
[2] = target: T1, recombinant SARS-CoV-2 Receptor Binding …; assay: ELISA on coated RBD-his
[3] = target: T1, recombinant SARS-CoV-2 Receptor Binding …; remark: listed apart in the source
[4] = target: T2, SARS-CoV-2 spike protein, wild type, on live virus (SARS-CoV-2-mNG / USA-WA1/2020) (SARS-CoV-2, UniProt P0DTC2 13-1273); assay: cell-based or functional assay
[5] = target: T2, SARS-CoV-2 spike protein, wild type, on …; assay: cell-based or functional assay; remark: listed apart in the source
[6] = target: T3, recombinant Spike protein (Sino Biologicals Cat #40589-V08B1) (SARS-CoV-2, UniProt P0DTC2 13-1213); assay: BLI (Octet), avidity to spike
[7] = target: T3, recombinant Spike protein (Sino …); assay: ELISA on coated recombinant spike
[8] = target: T3, recombinant Spike protein (Sino …); assay: BLI (Octet), His-tagged S on Ni-NTA sensor, avidity

Binder | EC50 (read off the curve) [1] | EC50 [2] | EC50 (read off the curve) [3] | EC50 (neutralization of live SARS-CoV-2-mNG) [4] | Fold change of neutralization EC50 in nM (IgM-14 against IgG-14) [4] | Fold change of neutralization EC50 in µg/ml (IgM-14 against IgG-14) [4] | Neutralization EC50 [5] | fold change of KD (IgM-14 against IgG-14) [6] | fold change of Kdis (IgM-14 against IgG-14) [6] | fold change of Kon (IgM-14 against IgG-14) [6] | EC50 [7] | fold change of ELISA EC50 (IgM-14 against IgG-14) [7] | Kd [8] | koff [8] | kon [8]
anti-SARS-CoV2-09 IgM (antibody) VH: QVQLHQWGAGLLKPSETLSRTCAVYGGSFSGYYWTWIRQAPGKGLEWIGEINHGGSTRYNPSLESRVSISVDTSKKQFSLELRSVTAADTAIYYCARGYDTNWYGDGYNWFDPWDRGTLVTVSS VL: QSALTQDPSVSVALGQTVRITCQGDSLRGSFASWYRQKPGQAPVLVIFGINNRPSGVPDRFSGSSSGNTASLTITGAQAEDEADYYCNSRESNSNRILFGGGTKVTVL not shown | ~0.4 nM | 0.3 nM | – | – | – | – | – | – | – | – | – | – | – | – | –
anti-SARS-CoV2-14 IgM (lambda-VL-kappa-CL hybrid light chain) (antibody) heavy: EVQLQQSGPGLVKPSQTLSLTCAISGDSVSSNSAAWNWIRQSPSRGLEWLGRTYYRSKWYNDYAVSVKSRITINPDTSKNQFSLQLNSVTPEDTAVYYCAREEQQLVHDYYYYGMDVWGQGTMVTVSSGSASAPTLFPLVSCENSPSDTSSVAVGCLAQDFLPDSITFSWKYKNNSDISSTRGFPSVLRGGKYAATSQVLLPSKDVMQGTDEHVVCKVQHPNGNKEKNVPLPVIAELPPKVSVFVPPRDGFFGNPRKSKLICQATGFSPRQIQVSWLREGKQVGSGVTTDQVQAEAKESGPTTYKVTSTLTIKESDWLSQSMFTCRVDHRGLTFQQNASSMCVPDQDTAIRVFAIPPSFASIFLTKSTKLTCLVTDLTTYDSVTISWTRQNGEAVKTHTNISESHPNATFSAVGEASICEDDWNSGERFTCTVTHTDLPSPLKQTISRPKGVALHRPDVYLLPPAREQLNLRESATITCLVTGFSPADVFVQWMQRGQPLSPEKYVTSAPMPEPQAPGRYFAHSILTVSEEEWNTGETYTCVVAHEALPNRVTERTVDKSTGKPTLYNVSLVMSDTAGTCY VL: QAVVTQPASVSGSPGQSITISCTGTSSDIGAYNYISWYQQHPGKAPKLIIYEVSNRPSGISYRFSGSKSGNTASLTISGLQAEDEANYYCSSYAGSISFGGGTKVTVL not shown | – | 0.7 nM | ~0.7 nM | 0.01 µg/ml and 0.011 nM | 236 fold | 39 fold | 0.015 µg/mL | 13.6 fold | 0.26 fold | 3.59 fold | 0.046 nM | 135 fold | 0.102 nM | 0.00034 s⁻¹ | 3.35e+06 M⁻¹ s⁻¹
